Here are results for one molecule from publication PMC11544220 (Scientific Reports, 2024).

Broadly, the stoichiometry N is the number of molecules, sites or subunits per partner or assembly. The Kd is the constant that tells how readily two partners part at equilibrium. By koff is commonly meant the rate constant with which the complex falls apart. A low value points to slow dissociation. Usually kon stands for the rate constant with which the complex forms. Low values mean slower complex formation, high ones faster complex formation.

The data set “native MS” concerns the molecule itself. The experiment in a line: native MS.
The target of data set [1] is Stl-Avi, biotinylated full-length Stl for the BLI sensor (Staphylococcus aureus, UniProt Q9F0J8 1-267, biotin on the Avi-tag). Nature of the data set: BLI.
Data set [2] concerns the target Stl^NT-Avi, biotinylated Stl 1-159 for the BLI sensor (Staphylococcus aureus, UniProt Q9F0J8 1-159, biotin on the Avi-tag). The experiment in a line: BLI.

B1: Mycobacterium tuberculosis dUTPase, wild type (MtDUT^WT) (enzyme)
chain: MSTTLAIVRLDPGLPLPSRAHDGDAGVDLYSAEDVELAPGRRALVRTGVAVAVPFGMVGLVHPRSGLATRVGLSIVNSPGTIDAGYRGEIKVALINLDPAAPIVVHRGDRIAQLLVQRVELVELVEVSSFDEAGLASTSRGDGGHGSSGGHASL
On to B1, for which the “stoichiometry N” value in the data set “native MS” amounted to 3 subunits in the oligomer. Further, in data set [1], the Kd was less than 1 pM, the koff is less than 1e-07 s⁻¹ and the kon amounted to 270000 ± 0.01 M⁻¹ s⁻¹. In data set [2], binding was put at a Kd of 0.19 ± 0.001 nM, the koff came out at 0.000103 ± 0.04 s⁻¹ and the kon was 542000 ± 0.01 M⁻¹ s⁻¹.
